Assays:
purified protein = substrate: C=C(C)CCO[P@@](=O)(O)OP(=O)(O)O; assay: purified protein; settings: DMAPP 50 μM constant, 35 mM Tris-HCl pH 7.5, 10 mM MgCl2, 4 mM DTT, 30 °C
[1] = substrate: CC(C)=CCC/C(C)=C/COP(=O)(O)OP(=O)(O)O; assay: LC/MS quantification of FPP formed; type: biochemical, Sundstroemia setigera; settings: IPP 50 μM constant, 35 mM Tris-HCl pH 7.5, 10 mM MgCl2, 4 mM DTT, 30 °C
[2] = substrate: CC(C)=CCOP(=O)(O)OP(=O)(O)O; assay: LC/MS quantification of FPP formed; type: biochemical, Sundstroemia setigera; settings: IPP 50 μM constant, 35 mM Tris-HCl pH 7.5, 10 mM MgCl2, 4 mM DTT, 30 °C

B1: RsFPPS (Sundstroemia setigera) (protein)
chain: VSSLPPIIAGAAIYRLVSSKTLPDLTSAFFELEIPDQISLLSLLFASVFSAVSISGFIAPPGHNDDDDEDEHKPPFQYPLKEIASKTTDKEKFLSVYPCLRDSIAEYFATKHEMVPEGVNWITEMIDYSCVGGKMNRGITVLTVARTLSGSSGLTPREEARASVVGWGIEFLQAFFLVADDLMDDSKTRRGQPCWYLLPKVGTIAVNDSFLLESFVFTFLKEHFGKEPYYIKLVELFLETIQQTECGQLLDLTSQPKDAKTADLSRFTIERYRKIVKYKTAFYSFYLPVASAMLMSGVTNSKSFKTARNICCIMGEYFQIQDDVLDCYGTPEVIGKVGTDIQDNKCSWLIVQALDRATPEQRKVIEENYGKWDDAKVAKIKAIYNEMGLKSVFEKYEEDSYAEIQEELKKINDIPQEVFTLFLDKIYKRSK
notes: kcat calculated for dimer
Question: What does the source list for B1?
Answer: Km (purified protein): 21.5 ± 6.7 µM; kcat (purified protein): 6.192 ± 0.5738 s⁻¹; Km [1]: 63.0 ± 7.5 µM; kcat [1]: 43.5 ± 2.228 s⁻¹; Km [2]: 10.6 ± 2.3 µM; kcat [2]: 5.73 ± 0.3038 s⁻¹

Source: publication PMC4440519, “Cloning and characterization of farnesyl pyrophosphate synthase from the highly branched isoprenoid producing diatom Rhizosolenia setigera” (Scientific Reports, 2015)
